Among the data in patent US20180155451A1 (published 2018) are Kd values, retold here.

For experiment [1], the target named is T1, FcgRIIIa F extracellular domain with C-terminal His tag (human, UniProt P08637 17-208).
T1 construct: extracellular domain; also called FcγRIIIa F; FcγRIIIa (F158); not shown: His tag attached to the C terminus
The experiment in a line: SPR (Biacore), antibody captured on chip, FcγR extracellular domain as analyte, kinetic analysis. On the procedure:
(§1) Analysis of interaction between obj ective antibody and the FcγR was carried out using Biacore T100 (GE Healthcare), Biacore T200, Biacore A100, and Biacore 4000. HBS-EP+ (GE Healthcare) was used as the running buffer, and the measurement temperature was set to 25° C. Chips produced by immobilizing the antigen peptide by the amine coupling method to a Series S sensor Chip CM5 (GE Healthcare), chips produced by allowing preliminarily biotinylated antigen peptides to interact with and immobilize onto a Series S Sensor Chip SA (certified) (GE Healthcare), chips produced by immobilizing Protein L (ACTIGEN, BioVision) to Series S Sencor Chip CM5 (GE Healthcare), or chips produced by immobilizing Protein A/G (Thermo Scientific) to Series S Sencor Chip CM5 (GE Healthcare) were used. Antibodies of interest were captured onto these chips, and allowed to interact to each FcγR diluted with running buffer. To regenerate and repeatedly use the chip, the antibodies captured onto the chip were washed off by reacting 10 mM glycine-HCl, pH 1.5.

Experiment [2] addresses T2, FcgRIIa R extracellular domain with C-terminal His tag (human, UniProt P12318 34-217).
T2 construct: extracellular domain; also called FcγRIIa R; FcγRIIa type R; not shown: His tag attached to the C terminus
T2 sequence (looked up): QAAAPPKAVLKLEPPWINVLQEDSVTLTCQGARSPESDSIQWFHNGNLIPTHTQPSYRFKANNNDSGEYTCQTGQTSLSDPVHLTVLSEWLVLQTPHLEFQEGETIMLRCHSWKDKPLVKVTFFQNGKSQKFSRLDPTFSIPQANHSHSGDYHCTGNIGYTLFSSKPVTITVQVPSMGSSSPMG
The experiment is described as above. On the procedure:
as §1

The target in experiment [3] is T3, FcgRIIIa V extracellular domain with C-terminal His tag (human, UniProt P08637 17-208).
T3 construct: extracellular domain; also called FcγRIIIa V; FcγRIIIa (V158); not shown: His tag attached to the C terminus
The description is as above. On the procedure: as §1

For experiment [4], the target named is T4, FcgRIa extracellular domain with C-terminal His tag (human, UniProt P12314 16-292).
T4 construct: extracellular domain; Expressed in FreeStyle293 cells; used as analyte in Biacore; also called FcγRIa; FcγRI; not shown: His tag attached to the C terminus
The experiment is described as above. As for the experimental part:
as §1

Experiment [5] has as its target T5, FcgRIIb extracellular domain with C-terminal His tag (human, UniProt P31994 43-217).
T5 construct: extracellular domain; also called FcγRIIb; not shown: His tag attached to the C terminus
T5 sequence (looked up): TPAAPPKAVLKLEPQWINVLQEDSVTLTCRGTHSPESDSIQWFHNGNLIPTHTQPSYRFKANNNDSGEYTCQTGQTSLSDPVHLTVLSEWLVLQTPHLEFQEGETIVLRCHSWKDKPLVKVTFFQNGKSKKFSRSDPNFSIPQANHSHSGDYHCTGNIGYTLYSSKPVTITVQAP
Described as above. On the procedure: as §1

In experiment [6] the target is T6, FcgRIIa H extracellular domain with C-terminal His tag (human, UniProt P12318 34-217).
T6 construct: extracellular domain; also called FcγRIIa H; FcγRIIa type H; not shown: His tag attached to the C terminus
T6 sequence (looked up): T2 sequence (looked up) with R134H
Described as above. On the procedure:
as §1

Experiment [7] deals with T7, FcgRIIa H (human, UniProt P12318 34-217).
T7 construct: extracellular domain; also called FcγRIIa H; FcγRIIa type H; not shown: His tag attached to the C terminus
T7 sequence (looked up): T2 sequence (looked up) with R134H
The experiment in a line: SPR (Biacore), antibody captured on chip, FcgR extracellular domain as analyte. On the procedure:
as §1
(In general: Surface plasmon resonance follows binding to a sensor surface in real time, without labels.)

The target of experiment [8] is T8, FcgRIIa R (human, UniProt P12318 34-217).
T8 construct: extracellular domain; also called FcγRIIa R; FcγRIIa type R; not shown: His tag attached to the C terminus
T8 sequence (looked up): T2 sequence (looked up)
The description is as above. As for the experimental part:
as §1

Experiment [9] concerns the target T9, FcgRIIb (human, UniProt P31994 43-217).
T9 construct: extracellular domain; Expressed in FreeStyle293 cells and purified; used as analyte in Biacore; also called FcγRIIb; CD32B; not shown: His tag attached to the C terminus
T9 sequence (looked up): T5 sequence (looked up)
The description is as above. On the procedure:
as §1

Experiment [10] deals with T10, FcgRIIIa F (human, UniProt P08637 17-208).
T10 construct: extracellular domain; also called FcγRIIIa F; not shown: His tag attached to the C terminus
The description is as above. On the procedure:
as §1

For experiment [11], the target named is T11, FcgRIa (human, UniProt P12314 16-292).
T11 construct: extracellular domain; Expressed in FreeStyle293 cells and purified; used as analyte in Biacore; also called FcγRIa; FcγRI; not shown: His tag attached to the C terminus
The experiment is described as above. On the procedure:
as §1

Experiment [12] deals with T12, FcgRIIIa V (human, UniProt P08637 17-208).
T12 construct: extracellular domain; also called FcγRIIIa V; not shown: His tag attached to the C terminus
The description is as above. As for the experimental part:
as §1

For experiment [13], the target named is T7, FcgRIIa H. Described as above. As for the experimental part: (§2) H240-Kn113 (SEQ ID NO: 92) resulting from introduction of Y234E and Y235N into H240-Kn072, H240-Kn115 (SEQ ID NO: 93) resulting from introduction of S239M into H240-Kn072, and H240-Kn125 (SEQ ID NO: 94) resulting from introduction of Y235Q and S239M into H240-Kn072 were prepared according to the method described in Reference Example 1.
as §1
The source holds these as a separate data set.

Experiment [14] concerns the target T8, FcgRIIa R. Described as above. On the procedure: as §2, §1
The source holds these as a separate data set.

For experiment [15], the target named is T9, FcgRIIb. The experiment is described as above. As for the experimental part:
as §2, §1
The source holds these as a separate data set.

The target of experiment [16] is T10, FcgRIIIa F. The description is as above. As for the experimental part:
as §2, §1
This is another data set of the same source.

Experiment [17] addresses T11, FcgRIa. Described as above. As for the experimental part: as §2, §1
This is another data set of the same source.

For experiment [18], the target named is T12, FcgRIIIa V. Described as above. As for the experimental part: as §2, §1
The source holds these as a separate data set.

Where a chain is given by its changes, count along the chain named. Numbers in names are those of the source. Where two headings read alike, the source gives them in different places.

T11 sequence (P12314 16-292): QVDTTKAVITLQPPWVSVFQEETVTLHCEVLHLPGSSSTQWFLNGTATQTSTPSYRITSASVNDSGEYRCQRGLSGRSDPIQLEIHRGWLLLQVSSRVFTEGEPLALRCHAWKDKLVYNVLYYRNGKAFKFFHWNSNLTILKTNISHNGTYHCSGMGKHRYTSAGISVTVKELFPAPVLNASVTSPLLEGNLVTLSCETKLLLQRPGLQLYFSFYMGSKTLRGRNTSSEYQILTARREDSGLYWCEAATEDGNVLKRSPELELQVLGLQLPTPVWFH
T4 sequence (P12314 16-292): as above
T12 sequence (P08637 17-208 F176V limits assumed): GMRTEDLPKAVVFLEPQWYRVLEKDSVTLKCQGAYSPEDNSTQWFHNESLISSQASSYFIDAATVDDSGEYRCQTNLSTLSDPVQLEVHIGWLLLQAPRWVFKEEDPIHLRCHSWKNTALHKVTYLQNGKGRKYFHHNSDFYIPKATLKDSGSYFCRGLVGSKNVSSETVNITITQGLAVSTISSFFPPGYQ
T3 sequence (P08637 17-208 F176V): as the sequence (P08637 17-208 F176V limits assumed) above
T10 sequence (P08637 17-208): as the sequence (P08637 17-208 F176V limits assumed) above, with V160F counted along it
T1 sequence (P08637 17-208): as the sequence (P08637 17-208 F176V limits assumed) above, with V160F counted along it

B1: H240-Kn033/H240-Hl033/L73-k0 (antibody, human IgG1, kappa)
heavy 1: not shown
heavy 2: not shown
light: DIQMTQSPSSLSASVGDRVTITCRASQDIHKYIAWYQQKPGQAPRLLIQYTSTLQPGVPSRFSGSGSGTDYTFTISSLQPEDIATYYCLQYEQLRTFGGGTKVEIKRTVAAPSVFIFPPSDEQLKSGTASVVCLLNNFYPREAKVQWKVDNALQSGNSQESVTEQDSKDSTYSLSSTLTLSKADYEKHKVYACEVTHQGLSSPVTKSFNRGEC
notes: Knobs-into-holes only (control)
By Kd is commonly meant the constant that tells how readily two partners part at equilibrium. Low values mean tighter binding, high ones weaker binding. As for B1, the Kd in [1] was 2600 nM; in [2] it was 1000 nM; in experiment [3] it was 390 nM; in experiment [4], 0.25 nM; in experiment [5] it was 4100 nM; in [6], 930 nM.

B2: H240-Kn061/H240-Hl071/L73-k0 (antibody, human IgG1, kappa)
heavy 1: QDQLVQSGAEVKKPGASVKVSCKASGFNIKDTYIQWVRQAPGQGLEWMGRIDPLRKQTKYREKFEGRVTITADTSTNTAYMELSSLRSEDTAVYYCVRSGREFDYWGQGTLVTVSSASTKGPSVFPLAPSSKSTSGGTAALGCLVKDYFPEPVTVSWNSGALTSGVHTFPAVLQSSGLYSLSSVVTVPSSSLGTQTYICNVNHKPSNTKVDKKVEPKSCDKTHTCPPCPAPEYYWGPSVFLFPPKPKDTLMISRTPEVTCVVVDVSDEDPEVKFNWYVDGVEVHNAKTKPREEQYNATYRVVSVLTVLHQDWLNGKEYKCKVSNKALPAPIEKTISKAKGQPREPQVCTLPPSRDELTKNQVSLWCLVKGFYPSDIAVEWESNGQPENNYKTTPPVLDSDGSFFLYSKLTVDKSRWQQGNVFSCSVMHEALHNHYTQKSLSLSP
heavy 2: QDQLVQSGAEVKKPGASVKVSCKASGFNIKDTYIQWVRQAPGQGLEWMGRIDPLRKQTKYREKFEGRVTITADTSTNTAYMELSSLRSEDTAVYYCVRSGREFDYWGQGTLVTVSSASTKGPSVFPLAPSSKSTSGGTAALGCLVKDYFPEPVTVSWNSGALTSGVHTFPAVLQSSGLYSLSSVVTVPSSSLGTQTYICNVNHKPSNTKVDKKVEPKSCDKTHTCPPCPAPELLGGPSVFLFPPKPKDTLMISRTPEVTCVVVDVSHEDPEVKFNWYVDGVEVHNAKTKPREEQYNSTYRVVSVLTVLHQDWLNGKEYKCKVSNDALPMPIEETISKAKGQPREPQVYTLPPSRCELTKNQVSLSCAVKGFYPSDIAVEWESNGQPENNYKTTPPVLDSDGSFFLVSKLTVDKSRWQQGNVFSCSVMHEALHNHYTQKSLSLSP
light: B1 light
notes: Heterodimerized anti-EREG IgG1: L234Y/L235Y/G236W/H268D/S298A in Kn061, K326D/A330M/K334E in Hl071
In the case of B2, the Kd was determined as 280 nM with FcgRIIa H [7]; 350 nM with FcgRIIa R [8]; 1200 nM with FcgRIIb [9]; 5.1 nM with FcgRIIIa F [10]; 0.14 nM with FcgRIa [11]; 1.8 nM with FcgRIIIa V [12].

B3: H240-afucosyl_G1d/L73-k0 (antibody, human IgG1, kappa)
heavy: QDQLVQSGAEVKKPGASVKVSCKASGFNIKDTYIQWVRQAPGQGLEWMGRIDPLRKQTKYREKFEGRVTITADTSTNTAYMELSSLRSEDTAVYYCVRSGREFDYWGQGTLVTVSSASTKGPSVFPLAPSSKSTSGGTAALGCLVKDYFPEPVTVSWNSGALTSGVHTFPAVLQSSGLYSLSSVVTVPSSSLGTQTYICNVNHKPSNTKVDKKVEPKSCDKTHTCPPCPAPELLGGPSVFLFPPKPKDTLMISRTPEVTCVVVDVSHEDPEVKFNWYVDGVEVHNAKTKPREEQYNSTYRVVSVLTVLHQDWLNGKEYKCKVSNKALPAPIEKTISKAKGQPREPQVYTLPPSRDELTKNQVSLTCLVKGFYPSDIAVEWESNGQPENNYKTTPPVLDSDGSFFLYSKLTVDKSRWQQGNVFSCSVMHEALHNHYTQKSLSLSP
light: B1 light
modifications: fucose removed from the sugar chain (afucosylated)
notes: also called afucosylated antibody
For the molecule B3, the Kd in experiment [1] worked out at 78 nM; in [2], 490 nM; in [3], 6.9 nM; in [4], 0.43 nM; in experiment [5], 2600 nM; in experiment [6], 780 nM.

B4: H240-Kn072/H240-Hl076/L73-k0 (antibody, human IgG1, kappa)
heavy 1: B2 heavy 1 with D269E
heavy 2: B2 heavy 2 with D269E
light: B1 light
notes: Heterodimerized anti-EREG IgG1: D270E introduced into both H chains of H240-Kn061/H240-Hl071/L73-k0
B4: the Kd in the experiment with FcgRIIa H [7] stood at 130 nM; in the experiment with FcgRIIa R [8] it was 710 nM; in the experiment with FcgRIIb [9] it was 5700 nM; with FcgRIIIa F [10], 2.6 nM; in the experiment with FcgRIa [11] it was 0.1 nM; with FcgRIIIa V [12] it was 1 nM. The Kd with FcgRIIa H [13] was found to be 130 nM; with FcgRIIa R [14], 710 nM; with FcgRIIb [15], 5700 nM; in the experiment with FcgRIIIa F [16], 2.6 nM; with FcgRIa [17], 0.1 nM; with FcgRIIIa V [18] it was 1 nM.

B5: H240-Kn032/H240-Hl032/L73-k0 (antibody, human IgG1, kappa)
heavy 1: B2 heavy 1 with Y233L, Y234L, W235G, S238D, D267H, A297S, A329L, I331E
heavy 2: B2 heavy 2 with S238D, D325K, M329L, I331E, E333K
light: B1 light
notes: S239D/A330L/I332E in both H chains (called homodimerized)
In the case of B5, the Kd is 9.1 nM in [1]; 340 nM in experiment [2]; 3.1 nM in experiment [3]; 0.073 nM in experiment [4]; 620 nM in experiment [5]; 690 nM in experiment [6].
